# Results reported in patent US7517654B2, “Peptide and a derivative thereof promoting cell adhesion and spreading” (Seoul National University Industry Foundation, priority 2004, dated 2009).
# B1: rLG3: recombinant His6-tagged LG3 domain, residues 1128-1364 of human laminin α3 chain (protein, listed as Homo sapiens)
# chain: VRLNDTVGVTKKCSEDWKLVRSASFSRGGQLSFTDLGLPPTDHLQASFGFQTFQPSGILLDHQTWTRNLQVTLEDGYIELSTSDSGGPIFKSPQTYMDGLLHYVSVISDNSGLRLLIDDQLLRNSKRLKHISSSRQSLRLGGSNFEGCISNVFVQRLSLSPEVLDLTSNSLKRDVSLGGCSLNKPPFLMLLKGSTRFNKTKTFRINQLLQDTPVASPRSVKVWQDACSPLPKTQANH
# modifications: His6 tag
# notes: recombinant His6-tagged LG3 domain, residues 1128-1364 of human laminin α3 chain
# Assays:
# [1] = test system: HOK-16B cells; experiment: Cell adhesion assay on coated plates (crystal violet absorbance at 570 nm / cell counting); assay type: cell-based, human
# Experimental: The cell adhesion assay was performed according to a method reported by Okazaki et al. (J. Biol. Chem., 277:37070, 2002). In detail, 24-well culture plates (Nunc, Roskilde, Denmark) were coated with various amounts of rLG proteins at 4° C. overnight. The peptides were also coated on plates by drying overnight. The substrate-coated on the plates were blocked by adding 1% heat-inactivated bovine serum albumin (BSA) in PBS for 1 h at 37° C. and washed twice with PBS. The cells in the Experimental Example 1, detached by 0.05% tyrpsin and 0.53 mM EDTA in PBS and resuspended in culture media, were added (1×10^5 cells/500 μl) to each plate and incubated for 1 h at 37° C. After incubation, unattached cells were removed by rinsing twice with PBS. The attached cells were fixed with 10% formalin in PBS for 15 min, rinsed twice with PBS, and stained with 0.5% crystal violet for 1 h. The plates were gently rinsed with DDW three times and lysed with 2% SDS for 5 min. Absorbance was measured at 570 nm in a Bio-Rad Model 550 microplate reader (BioRad).
# The cell adhesion and spreading activities on peptide-coated plates were examined using HOK-16B cells by the same method as Experimental Example 2. 24-well plates were coated with 10, 20, 30, 40 and 50 μg/well peptides P1 to P5, respectively. HOK-16B cells were added to peptide-coated plates and cultured for 1 h in serum-free medium for 1 hr. After the unbound cells were washed off, adherent cells were fixed and stained with crystal violet, and then the stained cells were analyzed. Absorbance was measured at 570 nm in a microplate reader. BSA and the rLG3 were used as negative control and positive control, respectively.
# It was observed that peptide P4 promotes strong cell adhesion and spreading activities and binds to integrin α3β1 in the Example 4. Therefore, to determine the biologically active core sequences in peptide P4, five synthetic peptides (P4 D-I to P4 D-V), which are C-terminal truncated peptides from the peptide P4, and six synthetic peptides (P4 D-N1 to P4 D-N6), which are N-terminal truncated peptides from the peptide P4 were prepared (FIG. 6A) and examined for HOK-16B cell adhesion and spreading activities on peptide-coated plates by the present inventors. 24-well plates were coated with 10 μg/well C-terminal truncated peptides or N-terminal truncated peptides, and HOK-16B cells were added to the plates, and then cultured in serum-free medium for 1 hr. After the unbound cells were washed off, the adherent cells were fixed to stain with crystal violet, and the stained cells were analyzed. Absorbance was measured at 570 nm in a microplate reader. Peptide P4 and BSA were used as the positive and negative controls, respectively.
# 24-well plates were coated with 10 μg/well peptides, and HOK-16B cells were added to the plates, and then cultured in serum-free medium for 1 hr. After the unbound cells were washed off, the adherent cells were fixed to stain with crystal violet, and the stained cells were analyzed. Peptide P4 and BSA were used as the positive and negative controls, respectively. The results were expressed as mean ±SD of the four independent experiments.
# [2] = test system: HOK-16B cells; experiment: Cell spreading activity assay on coated plates; assay type: cell-based, human; details: spreading cells divided by total bound cells, coated plates
# Experimental: To identify spreading cells, attached cells were fixed with 10% formalin in PBS for 15 min, rinsed twice with PBS, and stained with 0.005% crystal violet for 1 h. The plates were then gently rinsed with DDW. To ensure a representative count, each plate was divided into quarters, two fields per quarter were photographed using an Olympus BX51 microscope at 100× magnification. Cells that had adopted a flattened, polygonal shape, with filopodia-and lamellipodia-like extensions were considered to be spreading cells. In contrast, cells that resisted being washed and remained tethered to the plate surface were considered to be non-spreading cells.
# To examine the adhesion activity of peptide P4 in detail, the inventors examined whether the adherent cells were tethered to the substratum or spread over the substratum. The BSA and rLG3 were used as the negative control and positive control, respectively, the percentage of cells displaying a spreading morphology was quantified by dividing the number of spreading cells by the total number of bound cells.
# [3] = molecular target: T1, integrin α3β1 (Homo sapiens, UniProt P05556+P26006); experiment: Adhesion activity inhibition assay with function-blocking anti-integrin mAbs or EDTA; assay type: cell-based; details: 25 μg/ml rLG3 or 10 μg/well peptide P4 coating; for inhibition of cell adhesion activity by anti-integrin β1 antibody: 5 μg/ml mAb (6S6) preincubation 30 min; for inhibition of cell adhesion activity by anti-integrin α3 antibody: 5 μg/ml mAb (P1B5) preincubation 30 min; for effect of EDTA on cell adhesion: 5 mM EDTA preincubation 30 min
# T1 construct: it is confirmed that the HOK-16B cells expressed several integrins, including α3β1, α6β1, and α6β4; endogenous in cells; host or cells: HOK-16B (HPV-16-immortalized human oral keratinocytes)
# T1 sequence (P26006 33-872 limits assumed): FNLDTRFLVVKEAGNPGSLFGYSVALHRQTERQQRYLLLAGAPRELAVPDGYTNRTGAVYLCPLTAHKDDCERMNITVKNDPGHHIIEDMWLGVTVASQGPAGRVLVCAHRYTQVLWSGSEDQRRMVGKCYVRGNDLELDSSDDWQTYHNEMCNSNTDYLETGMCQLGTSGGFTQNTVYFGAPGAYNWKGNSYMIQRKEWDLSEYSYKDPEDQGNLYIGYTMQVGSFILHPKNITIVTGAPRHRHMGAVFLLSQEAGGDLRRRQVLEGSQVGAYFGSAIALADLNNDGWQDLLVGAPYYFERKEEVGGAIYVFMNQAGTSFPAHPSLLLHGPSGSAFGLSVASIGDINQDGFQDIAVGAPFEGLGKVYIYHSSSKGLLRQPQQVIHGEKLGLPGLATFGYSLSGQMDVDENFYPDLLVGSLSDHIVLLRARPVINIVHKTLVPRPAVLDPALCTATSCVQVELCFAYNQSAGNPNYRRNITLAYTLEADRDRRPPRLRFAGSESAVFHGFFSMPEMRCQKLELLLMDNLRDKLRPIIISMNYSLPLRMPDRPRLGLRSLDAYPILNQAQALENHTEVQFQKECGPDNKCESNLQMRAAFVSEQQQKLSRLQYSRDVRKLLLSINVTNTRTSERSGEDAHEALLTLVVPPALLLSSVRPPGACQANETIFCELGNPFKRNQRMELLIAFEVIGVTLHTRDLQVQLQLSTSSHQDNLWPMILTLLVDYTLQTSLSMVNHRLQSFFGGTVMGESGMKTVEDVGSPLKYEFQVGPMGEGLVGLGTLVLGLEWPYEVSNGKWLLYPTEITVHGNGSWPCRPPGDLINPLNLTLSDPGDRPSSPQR
# T1 sequence (P26006 873-1051 limits assumed): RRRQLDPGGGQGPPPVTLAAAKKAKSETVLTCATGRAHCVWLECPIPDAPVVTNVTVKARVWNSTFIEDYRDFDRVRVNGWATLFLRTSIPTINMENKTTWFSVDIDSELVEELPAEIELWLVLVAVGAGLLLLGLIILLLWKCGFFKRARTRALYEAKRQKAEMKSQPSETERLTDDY
# T1 sequence (P05556 21-798): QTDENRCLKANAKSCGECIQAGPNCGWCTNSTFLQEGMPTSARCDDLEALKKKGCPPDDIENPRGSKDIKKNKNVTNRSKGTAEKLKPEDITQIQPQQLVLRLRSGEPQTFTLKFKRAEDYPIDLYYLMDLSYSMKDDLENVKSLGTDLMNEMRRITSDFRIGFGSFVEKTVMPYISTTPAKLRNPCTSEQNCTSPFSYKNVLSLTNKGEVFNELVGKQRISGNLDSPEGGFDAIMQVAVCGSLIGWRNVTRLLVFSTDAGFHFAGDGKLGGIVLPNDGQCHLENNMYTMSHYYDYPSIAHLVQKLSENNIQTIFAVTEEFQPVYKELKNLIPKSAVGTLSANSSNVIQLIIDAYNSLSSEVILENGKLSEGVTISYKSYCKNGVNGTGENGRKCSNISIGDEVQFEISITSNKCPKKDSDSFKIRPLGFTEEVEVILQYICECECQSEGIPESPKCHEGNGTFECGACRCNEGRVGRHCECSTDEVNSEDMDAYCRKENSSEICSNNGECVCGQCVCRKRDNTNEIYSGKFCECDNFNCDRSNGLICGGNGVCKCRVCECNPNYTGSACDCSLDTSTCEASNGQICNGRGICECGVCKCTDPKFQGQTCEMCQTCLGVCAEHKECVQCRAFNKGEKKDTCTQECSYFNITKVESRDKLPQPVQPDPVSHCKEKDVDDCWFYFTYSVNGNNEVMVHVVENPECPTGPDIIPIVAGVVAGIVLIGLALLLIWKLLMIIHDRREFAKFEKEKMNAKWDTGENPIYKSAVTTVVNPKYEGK
# Experimental: To identify the receptor of the HOK-16B cells for rLG3 protein and peptide P4, 5 μg/ml of mAbs to different types of integrins or 5 mM EDTA were preincubated individually with HOK-16B cells in 0.5 ml incubation solution (2×10^5 cells/ml) for 30 min at 37° C. The preincubated cells were then transferred onto plates precoated with either 25 μg/ml of rLG3 protein or 10 μg/well of peptide P4 and incubated for 1 h at 37° C. Attached cells were then quantified by the cell adhesion assay described above in the Experimental Example 2, and cell adhesion activity inhibition rate were measured.
# Meanwhile, the ligand-integrin interaction were known to require a divalent cation. To determine the role of cations in the interaction, the present inventors examined the effect of metal-chelating reagent, EDTA, on HOK-16B cell adhesion to the rLG3- and peptide P4-coated plates. HOK-16B cells were preincubated with 5 mM EDTA or 5 μg/ml function-blocking mAbs (Chemicon Temecula, CA) against integrin α3 (P1B5), β1 (6S6), α6 (NK I-GoH3) subunits for 30 min at 37° C. and plated on 25 μg/ml rLG3-precoated plate, and then cultured for 1 hr. After the unbound cells were washed off, the adherent cells were fixed to stain with crystal violet, and the stained cells were analyzed. The average adhesion activity of control cultures (HOK-16B cells preincubated without EDTA or integrin antibodies) were considered 100%.
molecule,measurement,setting,value
PPFLMLLKGSTR [peptide P4],coating concentration at which maximum cell adhesion was obtained,"[1]; HOK-16B cells, peptide-coated 24-well plates",≥ 10 μg/well
same,cell adhesion activity of synthetic peptides,"[1]; HOK-16B cells, plates coated with 10-50 μg/well peptide, 1 h, serum-free medium",strong dose-dependent cell adhesion activity
same,HOK-16B cells displaying a spreading morphology,[2],35%
same,inhibition of cell adhesion activity by anti-integrin β1 antibody,[3],54%
same,inhibition of cell adhesion activity by anti-integrin α3 antibody,[3],49%
same,effect of EDTA on cell adhesion,[3],decrease in cell adhesion
B1,reduction of the level of cell adhesion compared to the 5 μg/ml laminin-coated control,[1]; 50 μg/ml rLG3 protein coating,approximately 45%
same,cell adhesion activity of rLG proteins,"[1]; HOK-16B cells on rLG protein-coated plates, 1 h, compared to BSA control",exhibited the adhesive activity
same,coating concentration at which maximum adhesion occurs,"[1]; HOK-16B cells, rLG protein-coated plates",25 µg/mL
same,HOK-16B cells displaying a spreading morphology,[2],47%
same,inhibition of cell adhesion activity by anti-integrin β1 antibody,[3],71%
same,inhibition of cell adhesion activity by anti-integrin α3 antibody,[3],71%
same,effect of EDTA on cell adhesion,[3],almost completely inhibited
